Measurements from publication PMC12079668, “Nanobodies against Cavin1 reveal structural flexibility and regulated interactions of its N-terminal coiled-coil domain” (Journal of Cell Science, 2025).

What was measured:
[1] = target: T1, mouse Cavin1 HR1 H102I/T105I (HT/II) mutant (Mus musculus, UniProt O54724, H102I | T105I); experiment: ITC; 200 μM NbA12 or NbB7 titrated into 6.25 μM trimeric mC1-HR1 HT/II or TS/DD mutant; GF150 buffer, 25°C; single-site fit; conditions: both partners purified
T1 construct: mouse Cavin1 (PTRF), HR1 domain with H102I and T105I; also called mC1 HR1 HT/II mutant; mC1-HR1(HT/II); source: E. coli BL21 CodonPlus (DE3), purified (glutathione Sepharose, GST removed on-column with thrombin, SEC); not shown: GST, N-terminal, cleaved

[2] = target: T2, mouse Cavin1 HR1 T105D/S106D (TS/DD) mutant (Mus musculus, UniProt O54724, T105D | S106D); experiment: as above; conditions: both partners purified
T2 construct: mouse Cavin1 (PTRF), HR1 domain with T105D and S106D (phosphomimetic); also called mC1 HR1 TS/DD mutant; mC1-HR1(TS/DD); source: E. coli BL21 CodonPlus (DE3), purified (glutathione Sepharose, GST removed on-column with thrombin, SEC); not shown: GST, N-terminal, cleaved

[3] = target: T3, mouse Cavin1 HR1 Q76A (residues 45-155) (Mus musculus, UniProt O54724, Q76A); experiment: ITC; NbA12 at 500 μM or NbB7 at 400 μM titrated into 30 μM (monomer) cavin HR1 domain or His-MBP full-length mC1; GF150 buffer (20 mM HEPES pH 7.4, 150 mM NaCl), 25°C; fitted with a 1:1 binding ratio; conditions: both partners purified
T3 construct: mouse Cavin1 (PTRF), HR1 domain, residues 45-155, Q76A; also called mC1 HR1 Q76A; source: E. coli BL21(DE3)pLysS, purified (TALON, SEC)

[4] = target: T4, zebrafish Cavin4b HR1 domain (residues 12-133) (Danio rerio (Zebrafish) (Brachydanio …, UniProt Q5PQY9)); experiment: as above; conditions: both partners purified
T4 construct: zebrafish Cavin4b, HR1 domain, residues 12-133 (codon-optimised construct); also called zC4b-HR1; zC4b HR1; source: E. coli BL21 CodonPlus (DE3), purified (TALON, SEC)
T4 sequence (Q5PQY9 entry or part of it): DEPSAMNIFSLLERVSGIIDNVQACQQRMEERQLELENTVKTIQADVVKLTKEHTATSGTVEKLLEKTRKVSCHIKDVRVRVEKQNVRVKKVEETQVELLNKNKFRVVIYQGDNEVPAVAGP

[5] = target: T5, endogenous CAV1 (HeLa) (Homo sapiens (Human)., UniProt Q03135); experiment: co-IP; lysates of HeLa cells expressing NbA12–GFP or NbB7–GFP, GFP-binding nanobody on NHS-activated Sepharose; 0.5% Triton X-100; endogenous Cavin1 and CAV1 detected by western blot; conditions: partners not purified
T5 construct: CAV1 (caveolin 1), endogenous in human HeLa cells; also called caveolin 1; source: endogenous, HeLa lysate
T5 sequence (Q03135 whole entry): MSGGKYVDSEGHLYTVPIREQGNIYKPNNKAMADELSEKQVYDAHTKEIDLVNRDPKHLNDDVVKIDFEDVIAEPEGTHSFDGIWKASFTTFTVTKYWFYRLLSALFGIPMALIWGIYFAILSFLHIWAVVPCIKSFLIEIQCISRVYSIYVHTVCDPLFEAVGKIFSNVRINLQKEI

[6] = target: T6, endogenous Cavin1 (HeLa) (Homo sapiens (Human)., UniProt Q6NZI2); experiment: as above; conditions: partners not purified
T6 construct: Cavin1 (PTRF), endogenous in human HeLa cells; also called PTRF; source: endogenous, HeLa lysate
T6 sequence (Q6NZI2 whole entry): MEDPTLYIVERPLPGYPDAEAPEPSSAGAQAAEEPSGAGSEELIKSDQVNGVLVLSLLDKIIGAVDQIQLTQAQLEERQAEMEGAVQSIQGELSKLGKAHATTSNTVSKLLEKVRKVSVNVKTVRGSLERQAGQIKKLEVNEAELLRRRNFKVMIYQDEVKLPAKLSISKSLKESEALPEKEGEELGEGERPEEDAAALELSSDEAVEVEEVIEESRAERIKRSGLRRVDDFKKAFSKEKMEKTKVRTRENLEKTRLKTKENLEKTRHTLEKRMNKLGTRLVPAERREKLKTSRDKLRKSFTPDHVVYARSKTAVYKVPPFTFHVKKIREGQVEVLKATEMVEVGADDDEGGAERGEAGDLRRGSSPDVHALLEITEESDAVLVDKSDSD

[7] = target: T7, mouse Cavin1 HR1 domain H102I/T105I (HT/II) mutant (Mus musculus, UniProt O54724, H102I | T105I); experiment: ITC; 200 μM NbA12 or NbB7 titrated into 6.25 μM trimeric mC1-HR1 HT/II or TS/DD mutant; GF150 buffer, 25°C; single-site fit; conditions: both partners purified
T7 construct: mouse Cavin1 (PTRF), HR1 domain, residues 45-155, H102I/T105I; pGEX-4T2, GST removed with thrombin; also called mC1-HR1(HT/II); source: E. coli BL21 CodonPlus (DE3), purified (glutathione Sepharose, thrombin on-column, SEC); not shown: GST, N-terminal, cleaved

[8] = target: T8, mouse Cavin1 HR1 domain T105D/S106D (TS/DD) mutant (Mus musculus (Mouse)., UniProt O54724, T105D | S106D); experiment: as above; conditions: both partners purified
T8 construct: mouse Cavin1 (PTRF), HR1 domain, residues 45-155, T105D/S106D (phosphomimetic); pGEX-4T2, GST removed with thrombin; also called mC1-HR1(TS/DD); source: E. coli BL21 CodonPlus (DE3), purified (glutathione Sepharose, thrombin on-column, SEC); not shown: GST, N-terminal, cleaved

[9] = target: T9, zebrafish Cavin4b HR1 domain (Danio rerio, UniProt A0A8M1N3J3); experiment: ITC; NbA12 at 500 μM or NbB7 at 400 μM titrated into 30 μM (monomer) HR1 domain of cavins or His-MBP full-length mC1; GF150 buffer (20 mM HEPES pH 7.4, 150 mM NaCl), 25°C; single-site fit; conditions: both partners purified
T9 construct: zebrafish Cavin4b, HR1 domain; Codon-optimised construct; also called zC4b-HR1; source: E. coli BL21 CodonPlus (DE3), purified (TALON, SEC)

[10] = target: T10, mouse Cavin1 HR1 domain (residues 45–155), His-Ub-tagged (Mus musculus (Mouse)., UniProt O54724); experiment: as above; conditions: both partners purified
T10 construct: mouse Cavin1 (PTRF), HR1 coiled-coil domain, residues 45-155; pHUE vector; the methods say the His-Ub proteins were used for ITC; removal of the tag is not described; also called mC1-HR1; wild-type HR1 domain; source: E. coli BL21(DE3)pLysS, purified (TALON, SEC)

[11] = target: T11, zebrafish Cavin4a HR1 domain (residues 16-123) (Danio rerio, UniProt A1L260); experiment: ITC; NbA12 at 500 μM or NbB7 at 400 μM titrated into 30 μM (monomer) cavin HR1 domain or His-MBP full-length mC1; GF150 buffer (20 mM HEPES pH 7.4, 150 mM NaCl), 25°C; fitted with a 1:1 binding ratio; conditions: both partners purified
T11 construct: zebrafish Cavin4a, HR1 domain, residues 16-123 (codon-optimised construct); also called zC4a-HR1; zC4a HR1; source: E. coli BL21 CodonPlus (DE3), purified (TALON, SEC)
T11 sequence (A1L260 16-123): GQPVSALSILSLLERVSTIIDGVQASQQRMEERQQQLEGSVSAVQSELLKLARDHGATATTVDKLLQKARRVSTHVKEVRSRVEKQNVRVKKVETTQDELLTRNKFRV

[12] = target: T12, N-terminal fragment of mouse Cavin1 HR1 domain (residues 45–103) (Mus musculus (Mouse)., UniProt O54724); experiment: ITC; NbA12 at 500 μM or NbB7 at 400 μM titrated into 30 μM (monomer) HR1 domain of cavins or His-MBP full-length mC1; GF150 buffer (20 mM HEPES pH 7.4, 150 mM NaCl), 25°C; single-site fit; conditions: both partners purified
T12 construct: mouse Cavin1 (PTRF), N-terminal part of the HR1 domain, residues 45-103; also called mC1-HR1(45–103); shorter fragment of mC1-HR1; source: E. coli BL21(DE3)pLysS, purified (TALON, SEC)

[13] = target: T13, full-length mouse Cavin1, His-MBP-tagged (Mus musculus (Mouse)., UniProt O54724); experiment: as above; conditions: both partners purified
T13 construct: mouse Cavin1 (PTRF), full length; also called His-MBP full-length mC1; full-length MBP-tagged mC1; source: E. coli BL21(DE3)pLysS, purified (TALON, SEC)
T13 sequence (O54724 whole entry): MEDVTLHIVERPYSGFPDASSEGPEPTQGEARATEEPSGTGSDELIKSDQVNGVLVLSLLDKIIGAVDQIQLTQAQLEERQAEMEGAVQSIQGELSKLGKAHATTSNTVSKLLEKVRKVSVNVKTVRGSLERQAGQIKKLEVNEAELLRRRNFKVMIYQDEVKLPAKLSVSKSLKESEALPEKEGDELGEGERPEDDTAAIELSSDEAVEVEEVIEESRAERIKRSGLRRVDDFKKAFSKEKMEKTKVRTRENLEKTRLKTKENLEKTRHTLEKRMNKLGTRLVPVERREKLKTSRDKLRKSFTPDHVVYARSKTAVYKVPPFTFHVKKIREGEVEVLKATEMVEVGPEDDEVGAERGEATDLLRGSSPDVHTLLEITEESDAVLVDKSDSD

[14] = target: T14, zebrafish Cavin4a HR1 domain (Danio rerio, UniProt A1L260); experiment: as above; conditions: both partners purified
T14 construct: zebrafish Cavin4a, HR1 domain; Codon-optimised construct; also called zC4a-HR1; source: E. coli BL21 CodonPlus (DE3), purified (TALON, SEC)
T14 sequence (A1L260 whole entry, looked up, the tested form may be a part): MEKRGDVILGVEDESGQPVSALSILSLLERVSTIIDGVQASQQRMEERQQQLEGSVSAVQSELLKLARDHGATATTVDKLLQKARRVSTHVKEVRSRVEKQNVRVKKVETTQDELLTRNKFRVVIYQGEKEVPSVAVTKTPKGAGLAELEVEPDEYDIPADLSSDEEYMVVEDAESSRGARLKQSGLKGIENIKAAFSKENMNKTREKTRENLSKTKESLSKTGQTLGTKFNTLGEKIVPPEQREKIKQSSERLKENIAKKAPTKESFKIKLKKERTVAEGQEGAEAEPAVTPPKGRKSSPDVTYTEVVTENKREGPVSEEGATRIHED

[15] = target: T15, GST-tagged mouse Cavin1 HR1 domain (Mus musculus (Mouse)., UniProt O54724); experiment: pull-down; GST–mC1-HR1 (1 nmol) as bait on glutathione Sepharose, His-tagged nanobodies (2 nmol) as prey; 20 mM HEPES, 150 mM NaCl, 1 mM DTT, 0.1% IGEPAL, pH 7.4; 4°C; SDS-PAGE; conditions: both partners purified
T15 construct: mouse Cavin1 (PTRF), HR1 coiled-coil domain, residues 45-155; pGEX-4T2 with thrombin site; GST kept for the pull-down and the liposome pelleting assay; also called GST–mC1-HR1; GST-tagged mC1-HR1; source: E. coli BL21 CodonPlus (DE3), purified (glutathione Sepharose); not shown: GST, N-terminal, kept

[16] = target: the molecule itself; experiment: crystal structure; complex formed with 1.5-fold molar excess of NbB7 and purified by SEC; hanging-drop vapour diffusion, 20°C; X-ray

| Binder | Kd [1] [nM] | Kd [2] [nM] | binding result [4] | Kd [7] [nM] | Kd [8] [nM] | binding result [9] | other results |
| --- | --- | --- | --- | --- | --- | --- | --- |
| Nanobody NbB7 (VHH, the same chain is in PDB 9EGN, 9EG6 and 9EIU; source: E. coli WK6, periplasmic expression, purified (TALON, SEC)) VHH: QVQLQESGGGLVQAGGSLRLSCAVSGIRVNVNAMYWYRQAPGKQRELVAIITTFGSTNYADSAKGRFTISRDNTKNTVYLQMDNLKPEDTAVYYCNAPQFTDRYWGQGTQVTVSS | 140 ± 40 | 67 ± 20 | no binding | – | – | – | Kd [3]: 2890 ± 1010 nM |
| C-terminal GFP-tagged NbB7 (VHH, as the VHH of m1; pEGFP-N1; also called NbB7–GFP; source: HeLa, transiently transfected, in lysate; not shown: GFP, C-terminal, kept) VHH: QVQLQESGGGLVQAGGSLRLSCAVSGIRVNVNAMYWYRQAPGKQRELVAIITTFGSTNYADSAKGRFTISRDNTKNTVYLQMDNLKPEDTAVYYCNAPQFTDRYWGQGTQVTVSS | – | – | – | – | – | – | binding result [5]: binds; binding result [6]: binds |
| nanobody NbB7 (VHH, also in the deposited structures PDB 9EGN, 9EG6, 9EIU; alpaca nanobody raised against mC1-HR1; Cloned in pMES4 with a C-terminal 6x histidine tag; source: E. coli WK6, periplasmic expression, purified (TALON, SEC); not shown: His6, C-terminal, kept) VHH: QVQLQESGGGLVQAGGSLRLSCAVSGIRVNVNAMYWYRQAPGKQRELVAIITTFGSTNYADSAKGRFTISRDNTKNTVYLQMDNLKPEDTAVYYCNAPQFTDRYWGQGTQVTVSS | – | – | – | 142 | 66.7 | no binding | Kd [10]: 520 nM |
| Nanobody NbA12 (VHH, Selected by phage display from an alpaca immunised with mC1-HR1; source: E. coli WK6, periplasmic expression, purified (TALON, SEC)) VHH: QVQLQESGGGLVQAGGSLRLSCAASGFTFDDYAIGWFRQAPGKEREGVSCITSSDGSTYYADSVKGRFTISSDNAKNTVYLQMNSLKPEDTAVYYCAAESWPPLCHYSGMDYWGKGTQVTVSS | 3020 ± 1940 | 2170 ± 20 | no binding | – | – | – | binding result [11]: no binding |
| nanobody NbA12 (VHH, alpaca nanobody raised against mC1-HR1; Cloned in pMES4 with a C-terminal 6x histidine tag; source: E. coli WK6, periplasmic expression, purified (TALON, SEC); not shown: His6, C-terminal, kept) VHH: QVQLQESGGGLVQAGGSLRLSCAASGFTFDDYAIGWFRQAPGKEREGVSCITSSDGSTYYADSVKGRFTISSDNAKNTVYLQMNSLKPEDTAVYYCAAESWPPLCHYSGMDYWGKGTQVTVSS | – | – | – | 3000 | 2000 | no binding | binding result [12]: binds; binding result [13]: binds; binding result [14]: no binding; binding result [10]: binds; binding result [15]: binds |
| mouse Cavin1 HR1 domain (residues 45–155) as crystallised with NbB7 (domain or fragment, UniProt O54724 45-155, looked up, mouse Cavin1 (PTRF), HR1 coiled-coil domain, residues 45-155 in the crystallised construct; residues 56-98 ordered; also called mC1-HR1; source: E. coli, purified (SEC)) LIKSDQVNGVLVLSLLDKIIGAVDQIQLTQAQLEERQAEMEGAVQSIQGELSKLGKAHATTSNTVSKLLEKVRKVSVNVKTVRGSLERQAGQIKKLEVNEAELLRRRNFKV | – | – | – | – | – | – | stoichiometry N [16]: 3 |
